Values belong to the binder of their own block, whether it stands above or below them.
Molecular target: EGFR (human (endogenous on human cancer cell …, UniProt P00533 25-1210))
Assay: cell-based or functional assay

- IC50 of in vitro proliferation inhibition, EGFR-positive MDA-MB-468 cells (CCK8, 6 days): 0.21 nM
B1: ADC-126 (antibody, human IgG1, V domains shown)
VH: QVQLQQSGAEVKKPGSSVKVSCKASGYTFTNYYIYWVRQAPGQGLEWIGGINPTSGGSNFNEKFKTRVTITVDESTNTAYMELSSLRSEDTAFYFCARQGLWFDSDGRGFDFWGQGSTVTVSS
VL: DIQMTQSPSSLSASVGDRVTITCRSSQNIVHSNGNTYLDWYQQTPGKAPKLLIYKVSNRFSGVPSRFSGSGSGTDFTFTISSLQPEDIATYYCFQYSHVPWTFGQGTKLQITR
modifications: linker-drug LD-105 (maleimide) coupled to cysteine sulfhydryls after TCEP reduction; average drug loading y=4.96 per antibody; positions not given

- IC50 of in vitro proliferation inhibition, EGFR-positive MDA-MB-468 cells (CCK8, 6 days): 0.2 nM
B2: ADC-129 (antibody, human IgG1, V domains shown)
VH: B1 VH
VL: B1 VL
modifications: linker-drug LD-99 coupled to cysteine sulfhydryls after TCEP reduction; average drug loading y=7.11 per antibody; positions not given

- IC50 of in vitro proliferation inhibition, EGFR-positive MDA-MB-468 cells (CCK8, 6 days): 0.21 nM
B3: ADC-128 (antibody, human IgG1, V domains shown)
VH: B1 VH
VL: B1 VL
modifications: linker-drug LD-13 coupled to cysteine sulfhydryls after TCEP reduction; average drug loading y=7.62 per antibody; positions not given

From patent US20260001891A1 (KEYMED BIOSCIENCES CHENGDU, published 2026)
